Patent US20180203016A1 (UCB, published 2018)

Assays:
[1] = target: TNFα (fused trimer) - AVI Tag, biotinylated, in the presence of compound (3); assay: TR-FRET, 7.5 nM proteins, compound (3) up to 25 µM; partial loss of receptor binding
[2] = target: TNFα (fused trimer) - AVI Tag, biotinylated, in the presence of compound (4); assay: TR-FRET, 7.5 nM proteins, compound (4) up to 25 µM; partial loss of receptor binding
[3] = target: T1, soluble form of mouse TNFα (VC 6535) in complex with compound (1) (mouse, UniProt P06804 89-235); assay: X-ray crystallography, 3.15 Å
T1 construct: also called murine TNFα; trimer-compound complex
T1 sequence: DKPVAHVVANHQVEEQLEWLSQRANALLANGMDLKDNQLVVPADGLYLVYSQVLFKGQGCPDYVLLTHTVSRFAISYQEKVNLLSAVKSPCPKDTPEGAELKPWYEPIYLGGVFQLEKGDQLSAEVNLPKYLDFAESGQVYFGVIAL
Method: The final purified ternary complex was concentrated to 18.5 mg/ml and immediately used in crystallization trials.
The ternary complex was crystallized by sitting drop vapor diffusion by mixing 0.5 μl of complex with 0.5 μl of 800 mM sodium potassium tartrate, 0.5% PEG5000 MME, 100 mM Tris pH 8.5 over 100 μl of the same crystallization solution. Crystals were harvested for data collection approximately 2 months after initial set up. They were briefly soaked in paraffin oil and frozen directly in liquid nitrogen for data collection on Aug. 17, 2012 at Argonne Photon Source, beamline 21-IDF.

[4] = target: T2, fused human TNFα trimer in complex with compound (2) (human, UniProt P01375 77-233; P01375 86-233; P01375 86-233, limits assumed); assay: analytical SEC (HPLC, TSK G3000SW), Abs 280 nm against retention time; 3.2 fold excess of TNFR1 over fused TNFα trimer preincubated with 90, 240, 465 or 690 µM compound (2) [D00007 Fig. 5(Cont.]
T2 construct: also called trimer-compound complex; compound-trimer complex
Method: The final concentration of DMSO was 0.25%. The mixture was incubated for 1 hour at 22° C.

[5] = target: T3, fused human TNFα trimer in complex with compound (5) (human, UniProt P01375 77-233; P01375 86-233; P01375 86-233, limits assumed); assay: analytical SEC (Superdex 200HR 10/300), Abs 280 nm against retention (CV); 3.5 fold excess of TNFR1 over trimer preincubated with 200 µM compound (5)
T3 construct: also called trimer-compound complex
Method: The final concentration of DMSO was 1.0%. The mixture was incubated for 1 hour at 22° C.

T2 sequence (P01375 other isoform, or with tags, fused parts or gaps limits assumed): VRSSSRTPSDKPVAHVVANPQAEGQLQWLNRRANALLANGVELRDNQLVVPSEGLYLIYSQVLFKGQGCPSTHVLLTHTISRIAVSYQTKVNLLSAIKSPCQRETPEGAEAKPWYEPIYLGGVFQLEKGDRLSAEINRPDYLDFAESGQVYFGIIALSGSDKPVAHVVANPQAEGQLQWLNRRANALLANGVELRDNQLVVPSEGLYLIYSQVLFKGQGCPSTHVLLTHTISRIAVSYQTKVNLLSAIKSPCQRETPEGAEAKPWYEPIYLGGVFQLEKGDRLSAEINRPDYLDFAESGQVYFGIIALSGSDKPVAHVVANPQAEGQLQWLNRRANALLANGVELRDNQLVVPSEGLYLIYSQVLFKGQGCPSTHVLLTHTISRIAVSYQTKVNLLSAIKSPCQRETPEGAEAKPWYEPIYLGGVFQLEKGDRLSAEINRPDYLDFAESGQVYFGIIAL
T3 sequence (P01375 other isoform, or with tags, fused parts or gaps limits assumed): as above

Question: With “TNFR1(ECD)-6xLysine-Human single chain Fc, Alexa Fluor 488 conjugated (from UniProt P19438 30-211) (Fc fusion)” as the molecule, how does the maximal inhibition of FRET signal [1] read?
Answer: Its maximal inhibition of FRET signal is 29%.

Question: And the maximal inhibition of FRET signal [2]?
Answer: The maximal inhibition of FRET signal was 36%.

B1: extracellular domain of human TNFR1 (VC 5602) (receptor)
chain: GSVCPQGKYIHPQDNSICCTKCHKGTYLYNDCPGPGQDTDCRECESGSFTASENHLRHCLSCSKCRKEMGQVEISSCTVDRDTVCGCRKNQYRHYWSENLFQCFNCSLCLNGTVHLSCQEKQNTVCTCHAGFFLRENECVSSSN
notes: Expressed in baculovirus infected insect cells
Question: Does B1 bind [3]?
Answer: Result: binds

B2: Human TNFR1 (V43-N184)(N54D, C182S) (receptor, UniProt P19438 43-184, looked up)
chain: VCPQGKYIHPQDNSICCTKCHKGTYLYNDCPGPGQDTDCRECESGSFTASENHLRHCLSCSKCRKEMGQVEISSCTVDRDTVCGCRKNQYRHYWSENLFQCFNCSLCLNGTVHLSCQEKQNTVCTCHAGFFLRENECVSSSN
notes: also called receptor
Question: Which results are given for B2?
Answer: binding result [4]: binds; binding result [5]: binds
